This is an account of results in paper PMC8750366, “Role of the Redox State of Human Peroxiredoxin-5 on Its TLR4-Activating DAMP Function” (Antioxidants, 2021).

The target of data set [1] is C47S mutant N-terminal 6xHis-tagged human peroxiredoxin-5 (human). The data set can be described thus: SEC-MALS; 50 µL loaded on Superdex 200 Increase 10/300 GL (and Superdex 75 Increase, data not shown), PBS running buffer pH 7.4; Zimm fit. In general terms: Size exclusion chromatography separates by hydrodynamic size, large species first.
Data set [2] deals with recombinant human TLR4 (R&D Systems) (human) (UniProt O00206). The data set can be described thus: AFM single-molecule force spectroscopy; PRDX5 grafted on the AFM tip by a PEG24 linker, TLR4 covalently attached to an alkanethiol SAM on gold (NHS/EDC); PBS, ~25 °C; retraction speeds 100 nm/s to 10 µm/s; Bell-Evans fit.
Sequence of recombinant human TLR4 (R&D Systems) (human) (O00206 24-631): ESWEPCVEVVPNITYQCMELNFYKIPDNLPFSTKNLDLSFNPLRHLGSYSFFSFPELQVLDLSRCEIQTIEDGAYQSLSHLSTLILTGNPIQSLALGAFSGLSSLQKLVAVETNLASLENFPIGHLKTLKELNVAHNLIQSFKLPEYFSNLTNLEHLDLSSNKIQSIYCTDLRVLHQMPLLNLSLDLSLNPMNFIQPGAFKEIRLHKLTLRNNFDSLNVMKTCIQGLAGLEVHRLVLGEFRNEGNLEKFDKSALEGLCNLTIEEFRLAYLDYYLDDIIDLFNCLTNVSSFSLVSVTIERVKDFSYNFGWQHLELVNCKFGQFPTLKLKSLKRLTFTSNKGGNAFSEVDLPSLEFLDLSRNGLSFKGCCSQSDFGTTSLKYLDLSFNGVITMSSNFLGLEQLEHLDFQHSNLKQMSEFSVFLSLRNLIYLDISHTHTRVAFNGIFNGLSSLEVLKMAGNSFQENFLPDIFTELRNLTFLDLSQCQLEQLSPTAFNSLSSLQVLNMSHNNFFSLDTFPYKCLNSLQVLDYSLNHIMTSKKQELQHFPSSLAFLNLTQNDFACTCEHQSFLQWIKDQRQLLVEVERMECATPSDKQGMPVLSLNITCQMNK
Data set [3] addresses TLR4-YFP stably expressed on HEK293 MD2-CD14 cells (UniProt O00206).
The target is the same in data set [4]. Put plainly: flow cytometry on cells; living HEK293 MD2-CD14 TLR4 cells exposed to 1 µM of the PRDX5 redox forms or increasing dsPRDX5 in DMEM, 40 min on ice; detected with anti-PRDX5 serum and Alexa Fluor 647 Plus secondary antibody; MFI of untreated cells subtracted.
Data set [5] deals with the molecule itself. The data set can be described thus: SEC-MALS; 50 µL loaded on Superdex 200 Increase 10/300 GL (and Superdex 75 Increase, data not shown), PBS running buffer pH 7.4; Zimm fit.
Data set [6] deals with TLR4-YFP stably expressed on HEK293 MD2-CD14 cells (UniProt O00206 24-839). The data set can be described thus: cell-based or functional assay.
Sequence of TLR4-YFP stably expressed on HEK293 MD2-CD14 cells (UniProt O00206 24-839) (O00206 24-839): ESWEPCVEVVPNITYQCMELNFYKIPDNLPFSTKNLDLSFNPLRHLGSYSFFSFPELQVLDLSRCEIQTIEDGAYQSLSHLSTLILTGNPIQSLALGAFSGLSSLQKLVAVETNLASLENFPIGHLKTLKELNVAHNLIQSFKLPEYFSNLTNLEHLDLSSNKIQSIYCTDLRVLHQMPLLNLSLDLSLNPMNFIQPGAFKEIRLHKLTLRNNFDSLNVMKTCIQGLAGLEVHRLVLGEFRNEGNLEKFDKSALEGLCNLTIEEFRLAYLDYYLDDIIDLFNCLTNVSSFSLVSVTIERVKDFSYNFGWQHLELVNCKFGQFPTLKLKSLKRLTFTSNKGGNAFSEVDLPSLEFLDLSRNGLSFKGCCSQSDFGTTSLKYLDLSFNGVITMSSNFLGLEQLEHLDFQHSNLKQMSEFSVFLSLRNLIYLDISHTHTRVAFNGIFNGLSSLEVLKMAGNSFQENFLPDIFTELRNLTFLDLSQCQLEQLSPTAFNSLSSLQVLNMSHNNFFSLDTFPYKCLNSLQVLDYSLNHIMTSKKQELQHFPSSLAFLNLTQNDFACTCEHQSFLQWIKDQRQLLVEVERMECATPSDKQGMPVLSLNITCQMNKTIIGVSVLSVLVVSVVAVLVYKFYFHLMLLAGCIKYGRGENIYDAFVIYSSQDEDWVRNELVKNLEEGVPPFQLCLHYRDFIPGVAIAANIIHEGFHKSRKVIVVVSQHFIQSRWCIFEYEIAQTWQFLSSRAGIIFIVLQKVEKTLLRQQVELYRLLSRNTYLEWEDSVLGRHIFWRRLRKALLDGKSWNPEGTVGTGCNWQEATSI

“And” between values parts separate entries of the source, which are not always exact repeats. Equal entries are not always repeated.

Sequence of TLR4-YFP stably expressed on HEK293 MD2-CD14 cells (UniProt O00206) (O00206 24-839): as above

As usually defined, the stoichiometry N is a count of units in the complex or per binding partner. The term koff denotes the first-order rate constant of dissociation. With “C47S mutant N-terminal 6xHis-tagged human peroxiredoxin-5 (enzyme)”, in data set [1], the stoichiometry N was 2 and 4. Moreover, the koff in data set [2] amounted to 1.97 s⁻¹. The molecule also registered an IL-8 secretion from HEK293 MD2-CD14 TLR4 cells, 2 µM protein, 16 h, ELISA in data set [3] of 893 pg/mL. In addition, in data set [4], the fold decrease in binding propensity compared to dsPRDX5 was 3 fold.
For the molecule “recombinant wild-type N-terminal 6xHis-tagged human peroxiredoxin-5, disulfide (oxidized) form (from UniProt P30044 54-214)”, the koff in data set [2] was 1.02 s⁻¹.

B1: chemically reduced and alkylated recombinant human peroxiredoxin-5 (enzyme)
chain: APIKVGDAIPAVEVFEGEPGNKVNLAELFKGKKGVLFGVPGAFTPGCSKTHLPGFVEQAEALKAKGVQVVACLSVNDAFVTGEWGRAHKAEGKVRLLADPTGAFGKETDLLLDDSLVSIFGNRRLKRFSMVVQDGIVKALNVEPDGTGLTCSLAPNIISQL
modifications: cysteine thiols alkylated with iodoacetamide (carbamidomethyl groups), more likely on the two Cys involved in the disulfide bond (C47, C151)
notes: human peroxiredoxin-5 (PRDX5), wild type, same construct as m1; Made from m1 by chemical treatment; Mainly a dimer by SEC-MALS; also called r/aPRDX5; reduced PRDX5; source: dsPRDX5 (E. coli M15, purified) treated with 10 mM DTT, then 55 mM iodoacetamide, ultra-filtered; not shown: His6, N-terminal, kept
For the molecule B1, in data set [2], the koff amounted to 2.47 s⁻¹. In data set [5], the “stoichiometry N” value amounted to 2. In data set [6], the “IL-8 secretion from HEK293 MD2-CD14 TLR4 cells, 2 µM protein, 16 h, ELISA” value (“IL-8 secretion” for short) was determined as 2440 pg/mL.

B2: recombinant wild-type N-terminal 6xHis-tagged human peroxiredoxin-5, disulfide (oxidized) form (enzyme)
chain: B1 chain
modifications: disulfide bridge between C47 and C151
notes: human peroxiredoxin-5 (PRDX5), wild type; calculated mass with reduced thiols 18,297.81 Da; Mainly a dimer by SEC-MALS, with ~30% monomers; also called dsPRDX5; PRDX5; source: E. coli M15 (pRep4), pQE-30, purified (Ni-NTA), dialyzed against PBS; not shown: His6, N-terminal, kept
In the case of B2, the “stoichiometry N” value in data set [5] was 2. Besides, the “IL-8 secretion” value in data set [6] came out at 4610 pg/mL.

B3: hyperoxidized recombinant human peroxiredoxin-5 (enzyme)
chain: B1 chain
modifications: Cys sulfinic (-SO2H) and/or sulfonic (-SO3H) acids; only partially hyperoxidized (~42% of species), a proportion of species keeps the disulfide bridge
notes: human peroxiredoxin-5 (PRDX5), wild type, same construct as m1; Made from m1 by chemical treatment; a mix of species; Mainly a dimer by SEC-MALS; also called s/sPRDX5; hyperoxidized PRDX5; source: dsPRDX5 (E. coli M15, purified) treated with 10 mM DTT, then 5 mM H2O2, ultra-filtered; not shown: His6, N-terminal, kept
Take B3: the “stoichiometry N” value in data set [5] was 2 and 4. In addition, the “IL-8 secretion” value in data set [6] came to 1450 pg/mL.
